The record followed here is patent publication US20080227085A1, “Methods and Systems for the Identification of Rna Regulatory Sequences and Compounds that Modulate their Function” (priority 2003, published 2008).

The test system of this data set is general translation (reporter mRNA encoding firefly luciferase). Description: Inhibition of reporter mRNA translation by HCV-IRES RNA fragments in in vitro translation system (RRL, firefly luciferase). The data set is classed as biochemical, rabbit. The note with it: RNA fragments preincubated with in vitro translation system before Fy Luc reporter mRNA; FIG. 3. As for the experimental part: FIG. 3. […] An in vitro translation system was preincubated with the RNA fragments before addition of the reporter mRNA construct encoding firefly luciferase (Fy Luc). The inhibitory effects of each of the fragments on general translation were determined by monitoring luciferase activity upon addition of substrate. […] Domain I not analyzed due to lack of any predicted secondary structure.
The plasmid pGEM3-HCV2b-IRES contains sequence coding for nucleotides 18 to 356 (SEQ ID NO: 1) of HCV-IRES RNA (genotype 2b) inserted at the BamHI restriction endonuclease site of the cloning vector pGEM-3 (Promega Corp., Madison, Wis.; FIG. 2A). RNA secondary structure prediction algorithms, as well as biochemical and genetic data, support a representation of this sequence as shown in FIG. 2B. […]
Translation reactions were performed in vitro to determine the inhibitory effect of HCV IRESIII RNA and fragments thereof and contained (20 μl): 4 μl pre-treated RRL, 4 μl 5× Reaction Buffer A, 5 μl of HCV IRES RNA (1 μM in 20% B), 5 μl mRNA ([…]), and 2 μl 10% DMSO. […] Translation reaction was stopped and Luciferase activity was measured using ViewLux™ (Perkin-Elmer Scientific Instruments, Boston, Mass.; detector set at 10 sec measurement and 6× binning; FIG. 3) upon the addition of 50 μl LucLite-Plus™ luciferase assay reagent (Promega Corp., Madison, Wis.). […]

B1: domain III: domain III RNA fragment of the HCV-IRES UTR (SEQ ID NO: 26), minimal RNA element required for efficient translation inhibition (nucleic acid)
chain: GGCCCCCCCCUCCCGGGAGAGCCAUAGUGGUCUGCGGAACCGGUGAGUACACCGGAAUUACCGGAAAGACUGGGUCCUUUCUUGGAUAAACCCACUCUAUGUCCGGUCAUUUGGGCGUGCCCCCGCAAGACUGCUAGCCGAGUAGCGUUGGGUUGCGAAAGGCCUUGUGGUACUGCCUGAUAGGGUGCUUGCGAGUGCCCCGGGAGGUCUCGUA
modifications: Hepatitis C virus; domain III of HCV-UTR RNA
As for B1, the “inhibition of translation of the reporter (luciferase activity)” value was “majority of inhibitory activity resides in domain III”.
